Results from PMC9181416.

Molecular target: PIN1 HL-1, fragment of the PIN1 hydrophilic loop, amino acids 289-451 (Arabidopsis thaliana) (UniProt Q9C6B8)
Assay: AUC; sedimentation velocity, 42,000 rpm, 20 °C, 50 mM NaP pH 7.4, 150 mM NaCl, absorbance at 280 nm, c(s) distribution (SEDFIT); PIN1 HL-1 at 1.26 mg/mL; monomer to dimer

stoichiometry N: 2
Substance: PIN1 HL-1, fragment of the PIN1 hydrophilic loop, amino acids 289-451 (from UniProt Q9C6B8 289-451) (domain or fragment)
